Measurements: patent US20230192799A1 (BIOMARIN PHARMACEUTICAL, published 2023)
Bridge positions count the residues as written; N and C are the ends. Ends that are not written are not given here.

molecular target: natriuretic peptide receptor-B (NPR-B) on the cells of the cGMP stimulation assay of Example 2; test: cell-based or functional assay

| Binder | EC50, T0 (cGMP stimulation assay) |
| --- | --- |
| PGQEHPNARKYKGANKKGLSKGCFGLKLDRIGSMSGLGC (disulfide 23-39 (inferred)) [Pro-Gly CNP-37] | 1.7 nM |
| Ac-PGQEHPNARKYKGANKKGLSKGCFGLKLDRIGSMSGLGC-NH2 (disulfide 23-39 (inferred)) [CNP-5] | 3 nM |
| Ac-PGQEHPNARRYRGANRRGLSRGCFGLKLDRIGSMSGLGC-OH (disulfide 23-39 (inferred)) [CNP-6] | 0.4 nM |
| Ac-PGQEHPNARRYRGANRRGLSRGCFGLKLDRIGSMSGLGC-NH2 (disulfide 23-39 (inferred)) [CNP-7] | 2.1 nM |
| Ac-PGQEHPQARRYRGAQRRGLSRGCFGLKLDRIGSMSGLGC-OH (disulfide 23-39 (inferred)) [CNP-8] | 0.2 nM |
| Ac-PGQEHPQARRYRGAQRRGLSRGCFGLKLDRIGSMSGLGC-NH2 (disulfide 23-39 (inferred)) [CNP-9] | 0.9 nM |
